The values that follow come from patent publication US20110171215A1 (published 2011).

The chains are these.
B1: Clone 10 anti-PD-1 antibody (antibody, V domains shown)
VH: DVQLQESGPGLVKPSQSLSLTCTVTGYSITSDYAWNWIRQFPGNKLEWMGYINYSGSTSYNPSLKSRISITRDTSKNQFFLQLNSVTTEDTATYYCARWIGSSAWYFDVWGAGTTVTV
VL: DVLMTQTPLSLPVSLGDQASISCRSGQNIVHSNGNTYLEWYLQKPGQSPKLLIYKVSNRFFGVPDRISGSGSGTDFTLKISRVEAEDLGVYFCFQGSHVPFTFGSGTKLEIK
B2: Clone 19 anti-PD-1 antibody (antibody, V domains shown)
VH: QVQLQQSGAELVKPGASVKMSCKAFGYTFTTYPIEWMKQNHGKSLEWIGNFHPYNDDTKYNEKFKGKAKLTVEKSSTTVYLELSRLTSDDSAVYYCARENYGSHGGFVYWGQGTLVTV
VL: ENVLTQSPAIMSASPGEKVTMTCRASSSVISSYLHWYQQKSGASPKLWIYSTSNLASGVPDRFSGSGSGTSYSLTISSVEAEDAATYYCQQYNGYPLTFGAGTKLEIK
B3: Clone 2 anti-PD-1 antibody (antibody, V domains shown)
VH: QVQLQQPGAELVKPGASVKLSCKASGYTFTTYYLYWVRQRPGQGLEWIGGINPSNGGTNFNEKFKSKATLTVDKSSSTAYMQLNSLTSEDSAVYYCTRRDYRYDRGFDYWGQGTSVTV
VL: DIVLTQSPASLAVSLGQRATISCRASKSVSTSGFNYIHWYQQKPGQPPKLLIYLASNLESGVPARFSGSGSGTDFTLNIHPVEDEDAATYYCQHSRELPLTFGAGTKLEIK

In the test the target is Monomeric soluble human PD-1 (human, UniProt Q15116 25-170). Briefly: SPR.
Sequence of Monomeric soluble human PD-1 (Q15116 25-170): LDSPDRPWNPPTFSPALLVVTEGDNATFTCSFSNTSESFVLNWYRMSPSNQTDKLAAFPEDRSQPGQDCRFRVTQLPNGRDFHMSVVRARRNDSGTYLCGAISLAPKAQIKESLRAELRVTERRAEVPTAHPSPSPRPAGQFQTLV
For the molecule B1, the koff is roughly 0.4 s⁻¹.

Turning to B2, the koff is roughly 0.0013 s⁻¹.

Molecule B3 showed an off-rate constant (koff) of roughly 0.0027 s⁻¹.
